The record followed here is PMC4873976, “Structural basis for haem piracy from host haemopexin by Haemophilus influenzae” (Nature Communications, 2016).

Assay [1] has as its target T1, Haemopexin (Oryctolagus cuniculus, UniProt P20058).
T1 chain: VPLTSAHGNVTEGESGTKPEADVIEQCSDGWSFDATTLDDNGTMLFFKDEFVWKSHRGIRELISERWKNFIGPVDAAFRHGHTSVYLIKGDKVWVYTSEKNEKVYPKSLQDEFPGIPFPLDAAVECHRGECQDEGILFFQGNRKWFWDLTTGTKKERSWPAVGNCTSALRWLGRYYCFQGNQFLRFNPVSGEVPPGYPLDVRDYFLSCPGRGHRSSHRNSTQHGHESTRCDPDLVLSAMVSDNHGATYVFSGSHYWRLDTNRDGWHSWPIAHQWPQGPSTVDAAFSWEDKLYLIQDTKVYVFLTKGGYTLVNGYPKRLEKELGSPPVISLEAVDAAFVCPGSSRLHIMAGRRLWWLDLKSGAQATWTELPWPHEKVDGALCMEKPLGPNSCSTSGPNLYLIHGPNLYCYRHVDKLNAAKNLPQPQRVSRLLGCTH
Put plainly: ITC; given as Ka. (Isothermal titration calorimetry measures the heat released or taken up as one component is titrated into another.)

Assay [2] addresses T2, HxuA, cysteine-less variant (cysteines 855 and 861 replaced by serines; referred to as HxuA throughout) (Haemophilus influenzae, UniProt P44602 22-905, cysteine at position 855 replaced by serine | cysteine at position 861 replaced …).
T2 construct: HxuA, haem-haemopexin utilisation protein A (TpsA cargo protein) of Haemophilus influenzae, called full-length, 884 residues, Ser1 to Gln884; Measured mass 96,467.6094 (theoretical 96,469.6926); also called HxuAdm; dm variant; source: E. coli BL21, pBAD24 derivative with the hxuCBA operon; purified from the culture supernatant (ammonium sulfate, SEC, monoQ)
T2 sequence: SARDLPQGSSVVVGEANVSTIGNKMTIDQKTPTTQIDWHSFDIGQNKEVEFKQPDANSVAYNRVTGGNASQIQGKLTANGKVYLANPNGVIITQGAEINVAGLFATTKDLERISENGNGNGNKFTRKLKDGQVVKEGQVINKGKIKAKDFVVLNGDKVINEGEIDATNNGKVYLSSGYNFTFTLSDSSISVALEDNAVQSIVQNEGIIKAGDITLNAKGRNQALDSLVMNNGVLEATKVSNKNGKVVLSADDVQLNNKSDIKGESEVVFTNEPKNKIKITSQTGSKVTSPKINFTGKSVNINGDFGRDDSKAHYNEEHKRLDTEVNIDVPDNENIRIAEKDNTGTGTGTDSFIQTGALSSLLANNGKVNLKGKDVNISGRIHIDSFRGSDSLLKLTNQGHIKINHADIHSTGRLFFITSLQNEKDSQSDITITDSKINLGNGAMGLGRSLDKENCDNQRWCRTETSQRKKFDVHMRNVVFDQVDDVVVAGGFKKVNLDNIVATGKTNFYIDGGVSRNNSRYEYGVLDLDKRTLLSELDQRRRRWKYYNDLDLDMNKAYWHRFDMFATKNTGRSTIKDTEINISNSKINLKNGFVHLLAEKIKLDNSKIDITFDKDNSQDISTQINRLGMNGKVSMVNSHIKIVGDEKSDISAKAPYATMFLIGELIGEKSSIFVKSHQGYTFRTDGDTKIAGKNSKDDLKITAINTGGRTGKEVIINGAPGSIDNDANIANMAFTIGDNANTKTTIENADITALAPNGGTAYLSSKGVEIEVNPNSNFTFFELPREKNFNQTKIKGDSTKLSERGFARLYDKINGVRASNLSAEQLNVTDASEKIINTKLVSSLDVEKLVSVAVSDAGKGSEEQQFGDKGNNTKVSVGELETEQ
Kind of assay: ITC; haemopexin or its fragments (~100 μM) in the syringe, HxuA (~10 μM) in the cell; 20 mM Na-phosphate pH 7.0, 25 °C; single-site model; apparent Ka. To be noted: both partners purified.

Assay [3] concerns the target T3, cysteine-less variant of HxuA^Asp726Ala (Haemophilus influenzae, UniProt P44602 22-905, Asp726Ala | cysteine at position 855 replaced by serine | cysteine at position …).
T3 construct: HxuA of Haemophilus influenzae, as m1 with Asp726Ala; also called dm variant of HxuA^Asp726Ala; source: E. coli, purified from the supernatant (same protocol as HxuA)
T3 sequence: T2 sequence with D726A
The assay is described as above. To be noted: both partners purified.

Changes are numbered by the printed parent chain.

B1: HxuA (protein)
chain: STQGLPQQGLPQQGLPQEDKVVVGQATFDKTIADKMTINQTSDKVQINWHSFDIGQNKEVEFKQPSENSVAYNRVTGGNASQIQGKLTANGKVYLANPNGVIITKGAEINVAGLLATTKDLEQISENSNSYQFTRKTKDRQVVKEGQVINEGEIKAKDFVVLNGDEVINKGNINVEKNSTINGKVYLSSGYNFTFTLSDSGISVALEDNTVRGIVQNEGSIKAGEITLSAKGRKEALDSLVMNNGVLEATKVSNRNGKVVLSADNVQLNNESNIKGEIVNFGTEVTSNEDKKLKITSKTGSKVTSPKINFKGKSVNINGNFGRENSGTHYNEERKTLNTEVNIDVPGAENIRIADDKDNTETDSFIQTEALSSLLANNGKVNLKGNDVNISGNINIDSFRGTDSLLKLTNQGHINIDHADINSKGRLFVVTSLQNDVDFKSNITITDSKINLGNGAMGLGRSVNEDDYATRWKRAEKSQRKKFNVDMRNVVFNQVDEVILAGGFEKVNLDKIVATGQTNFYIDGGVSRNNSRYEYGVLDLDYRTQLSELEQGRRRWRYYRDLDLDMNKAYLYRFDLFAKNNSGRSTIKGTEINISNSNINLKNGFVHLLAENIKLDNSKVDITFDKDNSQDTLAQTNRLGMNGKVSMINSHIKIVGDEKEGISPTGTYATMFLIGELIGEKSSIFVKSHQGYTFKTDGDTKIAGKNSKEDLKITAINTGGRAAEEVLINGALGSADNDANIANMAFTIGDSANTKTTIENADITALAPNGGTAYLSSKDVEIEVKPNSNFTFFELPREKNLNQTKINGASTKLSERGFARLYDKINGVRASNLSAEQLNVTDASEKIINTKLVSSLDVEKLVSVAVCDAGNGCEEQQFGDKGNNTKVSVGELEAEQ
In general, Kd refers to the free concentration of one partner at which half of the binding sites on the other are occupied at equilibrium, for simple one-to-one binding. Higher therefore signals weaker binding. Take B1: in assay [1], the Kd is less than 1 nM.

B2: rabbit haem-haemopexin (natural protein)
chain: T1 chain
notes: also called He-Hpx; source: purified from rabbit serum (Biosera), haem-loaded
Take B2: in assay [2], the Ka was more than 1e+09 M⁻¹ and the dH is -39.8 kcal/mol. Besides, in assay [3], the Ka is 2.9e+06 M⁻¹ and the dH is -12.8 kcal/mol.
